Laboratory results taken from patent publication US20250206813A1 (NVH MEDICINAL, published 2025).

T1: PCPE-1 (Procollagen C-proteinase enhancer-1) glycoprotein, human (human, UniProt Q15113 26-449)
T1 construct: mature; Secreted recombinant protein; also called purified human PCPE-1
T1 sequence (looked up): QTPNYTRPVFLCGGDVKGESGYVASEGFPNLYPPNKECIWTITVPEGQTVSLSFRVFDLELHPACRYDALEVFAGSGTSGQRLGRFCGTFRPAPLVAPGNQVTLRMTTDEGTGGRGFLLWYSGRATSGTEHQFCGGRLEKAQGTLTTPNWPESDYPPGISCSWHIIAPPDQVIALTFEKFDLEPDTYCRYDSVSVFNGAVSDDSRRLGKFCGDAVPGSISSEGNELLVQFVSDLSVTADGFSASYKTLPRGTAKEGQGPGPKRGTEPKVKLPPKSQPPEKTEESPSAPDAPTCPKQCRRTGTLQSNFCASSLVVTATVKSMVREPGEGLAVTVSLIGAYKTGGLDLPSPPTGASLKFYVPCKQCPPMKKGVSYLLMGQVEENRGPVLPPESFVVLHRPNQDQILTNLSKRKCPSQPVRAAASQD

T2: CUB2 domain of PCPE-1 (human, UniProt Q15113 159-273)
T2 construct: domain: CUB2
T2 sequence (looked up): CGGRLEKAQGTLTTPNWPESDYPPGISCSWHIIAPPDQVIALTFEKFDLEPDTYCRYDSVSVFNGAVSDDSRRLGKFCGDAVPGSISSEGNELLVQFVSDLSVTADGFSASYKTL

T3: PCPE-2 (with a 6-his N-terminal tag) (UniProt Q9UKZ9 24-415)
T3 construct: not shown: N-terminal 6-His tag
T3 sequence (looked up): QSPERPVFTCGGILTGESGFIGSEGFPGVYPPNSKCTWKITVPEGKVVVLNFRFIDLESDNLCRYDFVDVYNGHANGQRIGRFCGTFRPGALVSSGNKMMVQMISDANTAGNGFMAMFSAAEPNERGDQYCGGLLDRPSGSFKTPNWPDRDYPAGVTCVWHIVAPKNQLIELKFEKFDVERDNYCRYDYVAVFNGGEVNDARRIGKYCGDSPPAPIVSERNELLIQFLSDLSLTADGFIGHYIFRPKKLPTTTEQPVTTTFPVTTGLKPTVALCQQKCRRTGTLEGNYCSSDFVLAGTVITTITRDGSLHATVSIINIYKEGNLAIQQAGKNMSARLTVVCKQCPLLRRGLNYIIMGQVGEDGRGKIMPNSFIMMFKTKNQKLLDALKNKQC

T4: CUB1 domain of PCPE-1 (human, UniProt Q15113 37-149)
T4 construct: domain: CUB1
T4 sequence (looked up): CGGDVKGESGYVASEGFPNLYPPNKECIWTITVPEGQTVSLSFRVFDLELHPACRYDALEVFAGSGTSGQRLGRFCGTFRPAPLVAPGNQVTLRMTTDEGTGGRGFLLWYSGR


Assays:
[1] = biological target: T1, PCPE-1 (Procollagen C-proteinase …); test: SPR, VHH injected on immobilized PCPE-1
[2] = biological target: T1, PCPE-1 (Procollagen C-proteinase …); test: SPR competition: PCPE-1 (5 nM) co-injected with VHH on immobilized Mini III; VHH-H4 alone, 5 nM PCPE-1
Method: (§1) Surface plasmon resonance (SPR) experiments were carried out on a Biacore T200 (Cytiva). The ligand proteins, in solution in 10 mM HEPES pH 7.4 buffer for PCPE-1 or 10 mM sodium acetate pH 4.5 buffer for mini-procollagen III and streptavidin, are immobilized on CM5 chips by amine coupling. Analytes are diluted in running buffer (10 mM HEPES pH 7.4, 0.15 M NaCl, 5 mM CaCl₂), 0.05% P20) and injected at a flow rate of 30 or 50 μL/min. Competition, epitope binning and kinetics experiments were all carried out at 25° C. Regeneration was achieved by successive injection of 2 M guanidine chloride and 0.5 M EDTA for 30 sec. Sensorgrams were analyzed with Biacore T200 Evaluation v3.2.1 (Cytiva), using the most suitable models. IC50 was determined by non-linear regression using GraphPad Prism (v8.2.1).
(§2) What is more, their antagonistic effects are additive, and co-injection of a mixture of VHH-I5 and VHH-H4 with PCPE-1 virtually eliminates its interaction with Mini III.

CUB2 domain of PCPE-1 = biological target: T2, CUB2 domain of PCPE-1; test: SPR competition: VHH (50 nM) co-injected with the soluble CUB2 domain (250 nM) over immobilized PCPE-1
[3] = biological target: T3, PCPE-2 (with a 6-his N-terminal tag); test: SPR, biotinylated VHH on streptavidin chip, PCPE-2 injected
Method: (§3) FIG. 2D: VHHs […] is biotinylated and immobilized on a streptavidin chip (813 RU), then increasing concentrations of PCPE-1 (black) or PCPE-2 (grey) are injected.
(§4) FIG. 2E: VHH H4 is biotinylated and immobilized on a streptavidin chip (491 RU), then increasing concentrations of PCPE-1 or PCPE-2 are injected. [0038] D, E: Interactions are modeled (dotted line) using the Langmuir model (Biacore T200 Evaluation software, Cytiva)
(§5) PCPE-2 is a protein in the same family as PCPE-1, with a 43% identical amino acid sequence. It shares certain activities with PCPE-1, but also has very different specific functions. The specificity of nanobody interaction for PCPE-1 versus PCPE-2 was analyzed by SPR. To achieve this, VHH-I5 and VHH-H4 were biotinylated at their C-terminus using sortase, then immobilized on a streptavidin surface. […] The affinity of VHH-I5 and -H4 for PCPE-1 is therefore at least 250 times greater than for PCPE-2.

[4] = biological target: T1, PCPE-1 (Procollagen C-proteinase …); test: SPR, biotinylated VHH on streptavidin chip; reference PCPE-2
Method: as §3, §4, §5

[5] = biological target: T1, PCPE-1 (Procollagen C-proteinase …); test: SPR, biotinylated VHH on streptavidin chip, PCPE-1 injected, 1:1 binding model
Method: as §3, §4, §5

[6] = biological target: T1, PCPE-1 (Procollagen C-proteinase …); test: SPR competition: PCPE-1 (5 nM) co-injected with VHH on immobilized Mini III; VHH-I5 alone, 5 nM PCPE-1
Method: as §1, §2

CUB1 domain of PCPE-1 = biological target: T4, CUB1 domain of PCPE-1; test: SPR competition: VHH (50 nM) co-injected with the soluble CUB1 domain (250 nM) over immobilized PCPE-1

| Binder | Kd [1] [nM] | also measured |
| --- | --- | --- |
| VHH-I2 (VHH, Llama nanobody, pHEN6 vector, pelB signal, produced in E. coli periplasm; also called nanobody I2; not shown: C-terminal 6-His tag) VHH: QVQLVESGGGWVQPGGSLRLSCAASGITFSTKTMGWYRQRPGKRREWIGSISPTGFTNYADAVKGRVTISRDNGENTVYLQMNSLKPEDTAVYFCNGVPPVIIDGQSVAYWGQGTQVTVSS | 154 | – |
| VHH-I4 (VHH, Llama nanobody, pHEN6 vector, pelB signal, produced in E. coli periplasm; also called nanobody I4; not shown: C-terminal 6-His tag) VHH: QVQLVESGGGSVAAGESLTLSCRMSGSTSSIQAMGWYRRAPGNQREWLATISPRGNTNYADSVKGRFTISRDNAKNTVYLQMNSLKPADTAVYYCNTVPSGGIPWGQGTQVTVSS | > 250 | – |
| VHH-H1 (VHH, Synthetic nanobody (hsd2ab library), pET29b(+) vector, pelB signal; not shown: C-terminal 6-His tag) VHH: EVQLQASGGGFVQPGGSLRLSCAASGRTWSFYAMGWFRQAPGKEREFVSAISWNGGGEHYYADSVKGRFTISRDNSKNTVYLQMNSLRAEDTATYYCAHMEFSQSDYIISKWIYWGQGTQVTVSS | > 250 | – |
| VHH-H4 (VHH, Synthetic nanobody (hsd2ab library), pET29b(+) vector, pelB signal; also called nanobody-H4; not shown: C-terminal 6-His tag) VHH: EVQLQASGGGFVQPGGSLRLSCAASGFTSEISNMGWFRQAPGKEREFVSAISGTHTTQTYYADSVKGRFTISRDNSKNTVYLQMNSLRAEDTATYYCAAEQDMSDLWLGSYWGQGTQVTVSS | 30 | IC50 [2]: ~45 nM; binding result (CUB2 domain of PCPE-1): no binding (tested: 250 nM) |
| VHH-H4 biotinylated at its C-terminus using sortase (VHH, C-terminal biotin (GGGK-biotin ligated by Sortase A at the LPETG site), pHEN vector with LPETG and 6-His; Captured on streptavidin; also called biotinylated VHH-H4; biotinylated H4 nanobody; not shown: GGGK-biotin ligated by Sortase A in place of the 6-His label) VHH: EVQLQASGGGFVQPGGSLRLSCAASGFTSEISNMGWFRQAPGKEREFVSAISGTHTTQTYYADSVKGRFTISRDNSKNTVYLQMNSLRAEDTATYYCAAEQDMSDLWLGSYWGQGTQVTVSS | – | Kd [3]: > 1000 nM; fold affinity for PCPE-1 over PCPE-2 [4]: ≥ 250 fold; Kd [5]: 3.88 nM; koff [5]: 0.0195 s⁻¹; kon [5]: 5.04e+06 M⁻¹ s⁻¹ |
| VHH-H2 (VHH, Synthetic nanobody (hsd2ab library), pET29b(+) vector, pelB signal; not shown: C-terminal 6-His tag) VHH: EVQLQASGGGFVQPGGSLRLSCAASGSTSRDEGMGWFRQAPGKEREFVSAISRDHGWREYYADSVKGRFTISRDNSKNTVYLQMNSLRAEDTATYYCAPVIIDTMEVIPLYWGQGTQVTVSS | > 250 | – |
| VHH-H3 (VHH, Synthetic nanobody (hsd2ab library), pET29b(+) vector, pelB signal; not shown: C-terminal 6-His tag) VHH: EVQLQASGGGFVQPGGSLRLSCAASGATYWFSSMGWFRQAPGKEREFVSAISYWFDDIEYYADSVKGRFTISRDNSKNTVYLQMNSLRAEDTATYYCAMWNEQTGEEYWGQGTQVTVSS | > 250 | – |
| VHH-H9 (VHH, Synthetic nanobody (hsd2ab library), pET29b(+) vector, pelB signal; not shown: C-terminal 6-His tag) VHH: EVQLQASGGGFVQPGGSLRLSCAASGDTFNLTTMGWFRQAPGKEREFVSAISSSNTHIAYYADSVKGRFTISRDNSKNTVYLQMNSLRAEDTATYYCAYTYYGKNGKGMVYWGQGTQVTVSS | > 250 | – |
| VHH-I11 (VHH, Llama nanobody, pHEN6 vector, pelB signal, produced in E. coli periplasm; also called nanobody I11; not shown: C-terminal 6-His tag) VHH: QVQLVESGGGTVQAGGSLRLSCTASGRGRNAMGWYRQVPGGKRELVASINRGGTTDYTDSVKDRFTISRDSAKNTVYLQMDSLQPEDTAVYYCNAESTVIPGHIYDYWGRGTQVTVSS | 161 | – |
| VHH-H6 (VHH, Synthetic nanobody (hsd2ab library), pET29b(+) vector, pelB signal; not shown: C-terminal 6-His tag) VHH: EVQLQASGGGFVQPGGSLRLSCAASGFTSARYNMGWFRQAPGKEREFVSAISRHTDRQTYYADSVKGRFTISRDNSKNTVYLQMNSLRAEDTATYYCAVGMMPKQKQYWGQGTQVTVSS | > 250 | – |
| VHH-H8 (VHH, Synthetic nanobody (hsd2ab library), pET29b(+) vector, pelB signal; not shown: C-terminal 6-His tag) VHH: EVQLQASGGGFVQPGGSLRLSCAASGYTSDLTVMGWFRQAPGKEREFVSAISSHFGPPHYYADSVKGRFTISRDNSKNTVYLQMNSLRAEDTATYYCAMRERRHSWWYWGQGTQVTVSS | > 250 | – |
| VHH-I7 (VHH, Llama nanobody, pHEN6 vector, pelB signal, produced in E. coli periplasm; also called nanobody I7; 17; not shown: C-terminal 6-His tag) VHH: QVQLVESGGGLVPPGGSLKLSCTASGSIFSSNVMGWYRRAPGKQREWVASISRGGGTNYPDSVKGRFTVSRDIAKNTVYLQISSLKPEDTAVYYCNPIPYSGDYVSGQGTQVTVSS | 12.8 | – |
| VHH-I5 biotinylated at its C-terminus using sortase (VHH, C-terminal biotin (GGGK-biotin ligated by Sortase A at the LPETG site), pHEN vector with LPETG and 6-His; Captured on streptavidin; also called biotinylated VHH-I5; not shown: GGGK-biotin ligated by Sortase A in place of the 6-His label) VHH: QVQLVESGGGLVQPGGFLRLLCTASGNIFSSNTMGWYRRAPGKQREWVASISKGGSTNYADSVKDRFTISRSITKNTVYLQMVNLKPEDTAVYYCNPVPDSDNYASGQGTQVTVSS | – | Kd [3]: > 1000 nM; fold affinity for PCPE-1 over PCPE-2 [4]: ≥ 250 fold; Kd [5]: 1.45 nM; koff [5]: 0.00136 s⁻¹; kon [5]: 937000 M⁻¹ s⁻¹ |
| VHH-I5 (VHH, Llama nanobody, pHEN6 vector, pelB signal, produced in E. coli periplasm; also called nanobody-I5; 15; not shown: C-terminal 6-His tag) VHH: QVQLVESGGGLVQPGGFLRLLCTASGNIFSSNTMGWYRRAPGKQREWVASISKGGSTNYADSVKDRFTISRSITKNTVYLQMVNLKPEDTAVYYCNPVPDSDNYASGQGTQVTVSS | 7.2 | IC50 [6]: ~24 nM |
| VHH-H10 (VHH, Synthetic nanobody (hsd2ab library), pET29b(+) vector, pelB signal; not shown: C-terminal 6-His tag) VHH: EVQLQASGGGFVQPGGSLRLSCAASGYGWWIYEMGWFRQAPGKEREFVSAISWADGTRTYYADSVKGRFTISRDNSKNTVYLQMNSLRAEDTATYYCAIYILEGTQGVPIYWGQGTQVTVSS | 18 | binding result (CUB2 domain of PCPE-1): no binding (tested: 250 nM) |
| VHH-H7 (VHH, Synthetic nanobody (hsd2ab library), pET29b(+) vector, pelB signal; not shown: C-terminal 6-His tag) VHH: EVQLQASGGGFVQPGGSLRLSCAASGYYFRGEDMGWFRQAPGKEREFVSAISDDSTATIYYADSVKGRFTISRDNSKNTVYLQMNSLRAEDTATYYCAPGWYIYLDWSESGSAYWGQGTQVTVSS | 152 | – |
| VHH-I3 (VHH, Llama nanobody, pHEN6 vector, pelB signal, produced in E. coli periplasm; also called nanobody I3; 13; not shown: C-terminal 6-His tag) VHH: QVQLVESGGGLVEPGGSLRLSCAVSGSTFSMNVMGWYRQAPGKHREWVGSIGTGGGTNYPDSVKGRFTISRDNVKKTVYLQMNSLKPEDTAVYYCNKIPHNWGWGQGTQVTVSS | 16 | binding result (CUB1 domain of PCPE-1): no binding (tested: 250 nM) |
